Reference: article PMC6687101

Target: HBV envelope proteins (HBs; L, M and S forms) on HBV virions and subviral particles (hepatitis B virus) (UniProt P03138)
Experiment: co-IP; 50 µg apoE mAb23 or anti-HBs coupled to protein G agarose, mixed with 10 µL CsCl-purified HBV (fraction 7) at 4 °C overnight; HBcAg detected by WB and HBV DNA by qPCR (input = 100%); normal mouse IgG as control

## HBV core protein (from UniProt P03146 1-183) (natural protein)
  percent of HBV precipitated through HBs (HBV DNA by qPCR): > 95%
